Data taken from article PMC3007124 (Nature cell biology, 2010).

T1: EYFP-LacI-PSP1 (UniProt Q8R326 1-523)
T1 sequence: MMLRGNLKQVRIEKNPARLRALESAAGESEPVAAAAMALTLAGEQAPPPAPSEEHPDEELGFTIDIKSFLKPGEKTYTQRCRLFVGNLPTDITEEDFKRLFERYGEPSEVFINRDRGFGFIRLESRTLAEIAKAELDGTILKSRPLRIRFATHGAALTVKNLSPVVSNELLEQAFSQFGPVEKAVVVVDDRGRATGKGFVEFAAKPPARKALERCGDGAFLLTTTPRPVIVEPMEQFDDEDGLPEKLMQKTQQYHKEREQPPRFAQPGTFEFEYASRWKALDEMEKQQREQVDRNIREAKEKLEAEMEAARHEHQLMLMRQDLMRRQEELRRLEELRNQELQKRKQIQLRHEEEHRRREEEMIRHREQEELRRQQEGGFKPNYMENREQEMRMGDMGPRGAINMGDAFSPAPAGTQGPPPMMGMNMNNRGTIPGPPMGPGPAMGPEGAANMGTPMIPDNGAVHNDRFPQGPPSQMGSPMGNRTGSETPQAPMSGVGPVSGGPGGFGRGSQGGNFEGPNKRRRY

T2: EYFP-LacI-PSF (UniProt Q8VIJ6 1-699)
T2 sequence: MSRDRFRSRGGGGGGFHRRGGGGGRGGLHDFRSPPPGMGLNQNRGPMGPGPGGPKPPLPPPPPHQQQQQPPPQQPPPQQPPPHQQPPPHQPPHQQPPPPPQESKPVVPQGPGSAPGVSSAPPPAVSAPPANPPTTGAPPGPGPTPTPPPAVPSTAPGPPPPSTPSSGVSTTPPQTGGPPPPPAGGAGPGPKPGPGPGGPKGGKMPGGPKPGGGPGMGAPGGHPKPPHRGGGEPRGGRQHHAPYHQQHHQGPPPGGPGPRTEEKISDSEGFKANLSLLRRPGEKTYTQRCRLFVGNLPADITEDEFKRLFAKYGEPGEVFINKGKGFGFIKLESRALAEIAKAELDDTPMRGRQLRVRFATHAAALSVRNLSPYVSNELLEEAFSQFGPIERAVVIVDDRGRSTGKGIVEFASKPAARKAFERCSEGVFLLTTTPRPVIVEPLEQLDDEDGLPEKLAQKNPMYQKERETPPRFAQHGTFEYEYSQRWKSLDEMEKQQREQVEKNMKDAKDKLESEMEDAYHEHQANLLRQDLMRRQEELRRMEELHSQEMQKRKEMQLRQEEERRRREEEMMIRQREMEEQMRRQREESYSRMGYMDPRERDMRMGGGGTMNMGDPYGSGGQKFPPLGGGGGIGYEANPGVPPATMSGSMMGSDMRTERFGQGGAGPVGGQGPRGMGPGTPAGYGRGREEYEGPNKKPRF


Columns and labels:
EYFP-LacI-PSP1 = molecular target: T1, EYFP-LacI-PSP1; assay: LacO/LacI tethering in cells, recruitment seen by fluorescence microscopy
EYFP-LacI-PSF = molecular target: T2, EYFP-LacI-PSF; assay: as above

Row | Binder | percent of cells with recruitment to the tethered protein (EYFP-LacI-PSP1) | percent of cells with recruitment to the tethered protein (EYFP-LacI-PSF)
1 | mCherry-p54nrb (natural protein) MQSNKAFNLEKQNHTPRKHHQHHHQQHHQQQQQQQQQQPPPPIPANGQQASSQNEGLTIDLKNFRKPGEKTFTQRSRLFVGNLPPDITEEEMRKLFEKYGKAGEVFIHKDKGFGFIRLETRTLAEIAKVELDNMPLRGKQLRVRFACHSASLTVRNLPQYVSNELLEEAFSVFGQVERAVVIVDDRGRPSGKGIVEFSGKPAARKALDRCSEGSFLLTTFPRPVTVEPMDQLDDEEGLPEKLVIKNQQFHKEREQPPRFAQPGSFEYEYAMRWKALIEMEKQQQDQVDRNIKEAREKLEMEMEAARHEHQVMLMRQDLMRRQEELRRMEELHNQEVQKRKQLELRQEEERRRREEEMRRQQEEMMRRQQEGFKGTFPDAREQEIRMGQMAMGGAMGINNRGAMPPAPVPPGTPAPPGPATMMPDGTLGLTPPTTERFGQAATMEGIGAIGGTPPAFNRPAPGAEFAPNKRRRY | 87 % of the cells | –
2 | PSP2 (natural protein) MKIFVGNVDGADTTPEELAALFAPYGTVMSCAVMKQFAFVHMRENAGAVRAIEALHGHELRPGRALVVEMSRPRPLNTWKIFVGNVSAACTSQELRSLFERRGRVIECDVVKDYAFVHMEKEADAKAAIAQLNGKEVKGKRINVELSTKGQKKGPALAIQSGDKTKKPGAGDTAFPGTGGFSATFDYQQAFGNSTGGFDGQARQPTPPFFGRDRSPLRRSPPRASYVAPLTAQPATYRAQPSVSLGAAYRAQPSASLGVGYRTQPMAAQAASYRAQPSVSLGAPYRGQLASPSSQSAAASSLGPYGGVQPSASALSTYGGQAAAASSLNSYGAQGSSLASYGNQPSSYGAQAASSYGVRAAASSYNTQGAASSLGSYGAQAASYGAQSAASSLAYGAQAASYSAQPSASYSAQSAPYAAQQAASYSSQPAAYVAQPATAAAYASQPAAYAAQATTPMAGSYGAQPVVQTQLNSYGAQASIGLSGSYGAQSAAAATGSYGAAAAYGAQPSATLAAPYRTQSSASLAASYAAQQHPQAAASYRGQPGSAYDGTGQPSAAYLSMSQGAVANANSTPPPYERTRLSPPRASYDDPYKKAVAMSKRYGSDRRLAELSDYRRLSESQLSFRRSPTKSSLDYRRLPDAHSDYARYSGSYNDYLRAAQMHSGYQRRM | – | 58 % of the cells
